# Reference: US20030232760A1, “Conjugates useful in the treatment of prostate cancer” (priority 2001, published 2003)
# Where a SMILES comes first, the peptide text is derived from it. Primed or numbered codes have the meaning given here. [ ]: non-standard residue; d: D form. The star is where a group is joined. ξ: configuration not given here. Doxorubicin(3'-N) = COc1cccc2c1C(=O)c1c(O)c3c(c(O)c1C2=O)C[C@@](O)(C(=O)CO)C[C@@H]3O[C@H]1C[C@H](N*)[C@H](O)[C@H](C)O1; PEG(2) = polyethylene glycol-containing substituent with two ethyleneoxy subunits; Hyp = O=C(O)[C@@H]1C[C@@H](O)CN1; ξtBuAla = CC(C)(C)CC(N)C(=O)O; Chg = N[C@H](C(=O)O)C1CCCCC1; ξHyp = O=C(O)C1CC(O)CN1
# Tests used:
# [1] = molecular target: T1, enzymatically active free PSA (Homo sapiens, UniProt P07288); assay: Recognition of oligopeptide-doxorubicin conjugates by free PSA (HPLC cleavage assay); format: biochemical; details: for Time to 50% Substrate Cleavage by PSA: conjugate added to PSA at molar ratio 100 to 1, PSA digestion buffer
# T1 construct: required for 50% cleavage of the noted oligopeptides with enzymatically active free PSA
# T1 sequence (P07288 25-261): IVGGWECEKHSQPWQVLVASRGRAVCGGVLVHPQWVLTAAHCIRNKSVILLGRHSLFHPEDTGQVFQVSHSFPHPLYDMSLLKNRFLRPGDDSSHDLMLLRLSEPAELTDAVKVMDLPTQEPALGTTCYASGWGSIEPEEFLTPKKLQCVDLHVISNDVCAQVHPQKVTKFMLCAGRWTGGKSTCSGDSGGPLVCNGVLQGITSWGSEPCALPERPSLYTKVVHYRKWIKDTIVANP
# Description: The conjugates prepared as described in Examples 3-5 were individually dissolved in PSA digestion buffer (12 mM tris(hydroxymethyl)-aminomethane pH8.0, 25 mM NaCl, 0.5 mm CaCl2) and the solution added to PSA at a molar ration of 100 to 1. Alternatively, the PSA digestion buffer utilized is 50 mM tris(hydroxymethyl)-aminomethane pH7.4, 140 mM NaCl. The reaction is quenched after various reaction times by the addition of trifluoroacetic acid (TFA) to a final 1% (volume/volume). Alternatively the reaction is quenched with 10 mm ZnCl2. The quenched reaction was analyzed by HPLC on a reversed-phase C18 column using an aqueous 0.1% TFA/acetonitrile gradient. […] If no salt is indicated for the conjugate, the free conjugate was tested. The oligopeptide-cytotoxic agent conjugates described in Examples 4 and 5 were assessed for the amount of time (in minutes) required for 50% cleavage of the oligopeptide with enzymatically active free PSA and 50% cleavage occurred in less than 2 hours for those conjugates.
# DuPRO cells = assay: In vitro cytotoxicity of peptidyl derivatives of doxorubicin, Alamar Blue assay, DuPRO; format: cell-based; details: 72 HRS, read-out: DuPRO Cell Kill in 72 HRS EC 50
# Description: (§1) The cytotoxicities of the cleaveable oligopeptide-doxorubicin conjugates, prepared as described in Examples 3 and 4, against a line of cells which is known to be killed by unmodified doxorubicin were assessed with an Alamar Blue assay. Specifically, cell cultures of LNCap prostate tumor cells (which express enzymatically active PSA) or DuPRO cells in 96 well plates was diluted with medium (Dulbeco's Minimum Essential Medium-α [MEM-α]) containing various concentrations of a given conjugate (final plate well volume of 200 μl). The cells were incubated for 3 days at 37° C., 20 μl of Alamar Blue is added to the assay well. The cells were further incubated and the assay plates were read on a EL-310 ELISA reader at the dual wavelengths of 570 and 600 nm at 4 and 7 hours after addition of Alamar Blue. Relative percentage viability at the various concentration of conjugate tested was then calculated versus control (no conjugate) cultures. If no salt is indicated, the free conjugate was tested.
# [2] = test system: LNCap prostate tumor cells (which express enzymatically active PSA); assay: In vitro cytotoxicity of peptidyl derivatives of doxorubicin, Alamar Blue assay, LNCaP; format: cell-based; details: 72 HRS, read-out: LNCaP Cell Kill in 72 HRS EC 50
# Description: as §1
# [3] = molecular target: T1, enzymatically active free PSA; assay: Recognition of oligopeptides by free PSA (HPLC cleavage assay); format: biochemical; details: for Substrate cleavage by PSA at 3 HOURS: oligopeptide added to PSA at molar ratio 100 to 1; for Time to 50% Substrate Cleavage by PSA: oligopeptide added to PSA at molar ratio 100 to 1, PSA digestion buffer
# Description: The oligopeptides prepared as described in Example 1 were individually dissolved in PSA digestion buffer (12 mM tris(hydroxymethyl)-aminomethane pH8.0, 25 mM NaCl, 0.5 mM CaCl2) and the solution added to PSA at a molar ration of 100 to 1. Alternatively, the PSA digestion buffer utilized is 50 mM tris(hydroxymethyl)-aminomethane pH7.4, 140 mM NaCl. The reaction is quenched after various reaction times by the addition of trifluoroacetic acid (TFA) to a final 1% (volume/volume). Alternatively the reaction is quenched with 10 mM ZnCl2. The quenched reaction was analyzed by HPLC on a reversed-phased C18 column using an aqueous 0.1% TFA/acetonitrile gradient. […] Oligopeptides containing free amine moieties (ie. comprising hArg, Orn, Lys and or 3PAL) were tested as TFA salts. All other oligopeptides were tested as neutral compounds.
compound,measurement,setting,value
COc1cccc2c1C(=O)c1c(O)c3c(c(O)c1C2=O)C[C@@](O)(C(=O)CO)C[C@@H]3O[C@H]1C[C@H](NC(=O)C(CC(C)(C)C)NC(=O)[C@H](CO)NC(=O)[C@H](CCC(N)=O)NC(=O)[C@@H](NC(=O)[C@H](CO)NC(=O)[C@H](C)NC(=O)C2CC(O)CN2C(C)=O)C2CCCCC2)[C@H](O)[C@H](C)O1 (stereo partly shown) (Ac-[ξHyp]AS[Chg]QS[ξtBuAla]-{Doxorubicin(3'-N)}),Time to 50% Substrate Cleavage by PSA,[1],25 min
same,EC50,DuPRO cells,> 100 µM
same,EC50,[2],100 µM
"COc1cccc2c1C(=O)c1c(O)c3c(c(O)c1C2=O)C[C@@](O)(C(=O)CO)C[C@@H]3O[C@H]1C[C@H](NC(=O)[C@H](CC(C)C)NC(=O)[C@H](CO)NC(=O)[C@H](CCC(N)=O)NC(=O)[C@@H](NC(=O)[C@H](CO)NC(=O)[C@H](C)NC(=O)[C@@H]2C[C@@H](O)CN2C(C)=O)C2CCCCC2)[C@H](O)[C@H](C)O1 [Ac-(4-trans-L-Hyp)ASChgQ-SL-DOX (3′), [N-Ac-(4-trans-L-Hyp)]-Ala-Ser-Chg-Gln-Ser-Leu-Dox] (Ac-[Hyp]AS[Chg]QSL-{Doxorubicin(3'-N)})",Time to 50% Substrate Cleavage by PSA,[1],20 min
same,EC50,DuPRO cells,90 µM
same,EC50,[2],4.5 µM
Ac-(4-trans-L-Hyp)ASChgQ-SThi-DOX (3′),Solubility noted in the column Time to 50% Substrate Cleavage by PSA,[1],INSOLUBLE
Ac-(4-trans-L-Hyp)ChgQ-SSSL-acid,Substrate cleavage by PSA at 3 HOURS,[3],3 HOURS = 0% n = 2
Ac-(Dehydro-Pro)-ASChgQ-SL-acid,Substrate cleavage by PSA at 3 HOURS,[3],3 HOURS = 28%
Ac-PASChgQ-SL-acid (Ac-PAS[Chg]QSL-OH),Time to 50% Substrate Cleavage by PSA,[3],150 min
Ac-PSSChgQ-SV-acid,Time to 50% Substrate Cleavage by PSA,[3],120 min
PEG(2)-(4-trans-L-Hyp)ASChgQ-SL-acid ({PEG(2)}-[Hyp]AS[Chg]QSL-OH),Substrate cleavage by PSA at 3 HOURS,[3],3 HOURS = 44%
[N-Ac-(4-trans-L-Hyp)]-Ala-Ser-Chg-Gln-Ser-Leu-OH (Ac-[Hyp]AS[Chg]QSL-OH) [Ac-(4-trans-L-Hyp)ASChgQ-SL-acid],Time to 50% Substrate Cleavage by PSA,[3],75 min
